Source: article PMC5934362

Key:
Assay in all cases: ITC; 308 K; 50 mM HEPES pH 7.5, 0.5 mM CaCl2, 0.5 mM TCEP; TrxADocScaA variant in the cell, titrated with 28 injections of 10 uL CohScaB5; single-site model
[1] = biological target: TrxADocScaA V662 + V666 + V721 triple mutant (Ruminococcus flavefaciens FD-1)
[2] = biological target: TrxADocScaA V662 + V721 double mutant (Ruminococcus flavefaciens FD-1)
[3] = biological target: TrxADocScaA V662A (Ruminococcus flavefaciens FD-1)
[4] = biological target: TrxADocScaA N669A (Ruminococcus flavefaciens FD-1)
[5] = biological target: TrxADocScaA V662 + V666 double mutant (Ruminococcus flavefaciens FD-1)
[6] = biological target: TrxADocScaA V666A (Ruminococcus flavefaciens FD-1)
[7] = biological target: TrxADocScaA V721A (Ruminococcus flavefaciens FD-1)
[8] = biological target: TrxADocScaA N661A (Ruminococcus flavefaciens FD-1)
[9] = biological target: TrxADocScaA wild type (dockerin of primary scaffoldin ScaA fused to N-terminal thioredoxin A) (Ruminococcus flavefaciens FD-1)
[10] = biological target: TrxADocScaA H722A (Ruminococcus flavefaciens FD-1)
[11] = biological target: TrxADocScaA K670A (Ruminococcus flavefaciens FD-1)
[12] = biological target: TrxADocScaA V666 + V721 double mutant (Ruminococcus flavefaciens FD-1)

Chain of TrxADocScaA wild type (dockerin of primary scaffoldin ScaA fused to N-terminal thioredoxin A) (Ruminococcus flavefaciens FD-1) (main, as listed by the source): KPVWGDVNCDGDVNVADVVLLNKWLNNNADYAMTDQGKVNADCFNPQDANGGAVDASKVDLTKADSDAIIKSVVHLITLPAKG

Ka [1]: 291000 M⁻¹
dH [1]: -64.8 kcal/mol
stoichiometry N [1]: 1.04
Ka [2]: 6.24e+07 M⁻¹
dH [2]: -64.3 kcal/mol
stoichiometry N [2]: 1.08
Ka [3]: 4.78e+08 M⁻¹
dH [3]: -68.4 kcal/mol
stoichiometry N [3]: 1.02
Ka [4]: 3.16e+08 M⁻¹
dH [4]: -73.4 kcal/mol
stoichiometry N [4]: 1.01
Ka [5]: 1.98e+07 M⁻¹
dH [5]: -67.5 kcal/mol
stoichiometry N [5]: 0.98
Ka [6]: 4.07e+08 M⁻¹
dH [6]: -56.6 kcal/mol
stoichiometry N [6]: 1.02
Ka [7]: 5.1e+08 M⁻¹
dH [7]: -48.7 kcal/mol
stoichiometry N [7]: 0.95
Ka [8]: 2.64e+06 M⁻¹
dH [8]: -82.5 kcal/mol
stoichiometry N [8]: 0.98
Ka [9]: 4.02e+08 M⁻¹
dH [9]: -66.7 kcal/mol
stoichiometry N [9]: 1.01
Ka [10]: 2.73e+08 M⁻¹
dH [10]: -72.4 kcal/mol
stoichiometry N [10]: 1
Ka [11]: 3.67e+08 M⁻¹
dH [11]: -75.1 kcal/mol
stoichiometry N [11]: 1.02
Ka [12]: 2.25e+07 M⁻¹
dH [12]: -56.5 kcal/mol
stoichiometry N [12]: 1.01
Substance: RfCohScaB5 (fifth cohesin of adaptor scaffoldin ScaB), expressed alone with a C-terminal hexa-histidine tag (domain or fragment)
